Reference: PMC3314502

Target: FLAG-PICK1 (rat) (UniProt Q9EP80)
Experiment: pull-down

Sequence of UniProt Q9EP80 (Q9EP80 whole entry): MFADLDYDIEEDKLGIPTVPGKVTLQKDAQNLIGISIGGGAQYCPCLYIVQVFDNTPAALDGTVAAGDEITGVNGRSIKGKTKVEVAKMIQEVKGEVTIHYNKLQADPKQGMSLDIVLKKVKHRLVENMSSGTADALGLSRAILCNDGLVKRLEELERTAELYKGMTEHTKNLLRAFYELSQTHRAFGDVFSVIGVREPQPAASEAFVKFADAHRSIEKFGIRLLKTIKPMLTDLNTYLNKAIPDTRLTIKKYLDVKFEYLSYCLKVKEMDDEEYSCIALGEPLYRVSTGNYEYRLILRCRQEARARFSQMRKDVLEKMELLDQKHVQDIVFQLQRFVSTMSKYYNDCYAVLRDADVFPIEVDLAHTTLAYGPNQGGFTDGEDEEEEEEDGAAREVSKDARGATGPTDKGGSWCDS

percent of PICK1 retained by GST-ct-GluR5 (2b) with the peptide: 8%
Substance: pep2-EVKI, point mutant of the C-terminal 11 amino acids of GluR2 (from UniProt P19491 873-883) (peptide)
